Assay results reported in the RNAGym collection of RNA variant scans (doi:10.1073/pnas.2313332121).

B1: TPR t1 (parent)
chain: GACCAAUCUGCCCUCAGAGCUCGAGAACAUCUUCGGAUGCAGAGGAGGCAGGCUUCGGUGGCGCGAUAGCGCCAACGUCCUCAACCUCCAAUGCAUCCCACCACAUGAUGAUGCCUGAAGAGCCUUGGUUUUUUG

Variants of: B1
Experiment: polymerase ribozyme fitness, log enrichment relative to wild type (log ratio); higher = more active; in vitro selection for triplet polymerase activity
Outline: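 To select mutant libraries of each subunit of a heterodimeric triplet polymerase ribozyme, built by PCR and transcribed, each was annealed with a biotinylated primer, partner subunit and triplets, then incubated frozen at −7 °C. Extended constructs were gel-excised, captured on streptavidin beads and amplified by RT-PCR, in one round carried out in triplicate. Illumina sequencing of input and output libraries kept genotypes with ≥10 input reads and ≥1 read per output. Fitness is the base-2 logarithm of genotype enrichment relative to wild-type enrichment, from inverse-variance-weighted replicate averages.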

| Variant | polymerase ribozyme fitness (log ratio) |
| --- | --- |
| C20U U112A G120A | -0.897 |
| U21A C56U G57C | -0.599 |
| C20U G63U A118G U132A | -2.9 |
| C20U C56U C70U A84U U130C | -2.96 |
| C20U C40A G69C C94G G120U | -5.2 |
| C20U C56U G63C C94A G120C | -3.97 |
| C20U G60U U78A G113C | -2.3 |
| U21A C49U G63U | -3.27 |
| C20U C28U C72A C94U | -1.9 |
| C20U G110C | -4.31 |
| C20U A111C | -1.7 |
| C20U C56G G63C | -5.5 |
| C20U G61C C82A C124G | -1.38 |
| C20U U109A | -4.34 |
| C20U C64U C85G C94G | -3.93 |
| C20U C102U | -2.92 |
| C20U C102A | -3.26 |
| C20U G36A G122A G127C G135U | -5.15 |
| C20U C53A | -3.19 |
| U21A C70A C86U A111C | -5.59 |
| U21A C28A G71A C79U U81A G110C | -6.99 |
| C20U C64U | -1.68 |
| C20U G44A G45U | -3.42 |
| C20U G113U | -0.99 |

| Variant | polymerase ribozyme fitness (log ratio) |
| --- | --- |
| C20U G122A | -2.04 |
| U21A A41U C70U A95U | -4.21 |
| U21A A24G G36U G61C G120U U132A | -3.58 |
| C20U U59A C76G | -2.85 |
| C20U G42A G71U C80U C82A U112C | -2.53 |
| C20U U96G C123G U129A | -1.64 |
| C20U C86A | -2.3 |
| C20U G63A | -1.73 |
| C20U G63C | -2.1 |
| C20U C72A C102U U109A C114A U133G | -5.73 |
| U21A A50U G61U U130A | -1.97 |
| U21A C28U A37G G61U | -4.5 |
| C20U G93A | -1.32 |
| U21A C88G | -0.967 |
| C20U U78A C85U | -2.54 |
| C20U G77A A84U U112G | -2.88 |
| C20U C98U | -1.43 |
| U21A C72U | -2.3 |
| U21A C72G | -0.599 |
| C20U G71U | -1.29 |
| C20U C70U C88A U106C | -2.34 |
| C20U C56G | -1.53 |
| C20U C56U | -1.64 |
| C20U C115U | -1.73 |

| Variant | polymerase ribozyme fitness (log ratio) |
| --- | --- |
| C20U C73U A95C U129A | -4.3 |
| U21A A43U C72U U129A | -3.56 |
| U21A A46G C114G | -3.92 |
| C20U C76G C89U C104A C115U | -5.63 |
| U21A A29C G48A | -3.86 |
| C20U G35A G61A A111C | -5.53 |
| U21A C89G | -2.25 |
| U21A C56U C62U C85G | -3.76 |
| C20U C49U C62U G69A | -5.65 |
| C20U G69A G120U | -4.11 |
| C20U C72U | -1.9 |
| C20U U55G G69U C99A | -3.12 |
| C20U U81A | -1.98 |
| U21A A24G | -1.64 |
| C20U G42U U55G G69C U87C | -4.35 |
| C20U G45A G117U G127C U130G | -4.33 |
| C20U C80U C82G C85G | -3.74 |
| C20U G35U | -5.32 |
| C20U G35C G60U | -5.9 |
| C20U C62U C94U | -2.47 |
| C20U C62G C101U G110C | -6.8 |
| C20U G63C A84C A105U | -4.52 |
| C20U C40U G61U U96G C115G U134A | -3.07 |
| U21A A26G C73U G77A | -2.54 |

| Variant | polymerase ribozyme fitness (log ratio) |
| --- | --- |
| C20U C73G G113U U130A U131C | -3.02 |
| C20U C56U G93A C114G U129G | -2.17 |
| C20U G45U A50C G77A U78C A84U C123A | -3.79 |
| C20U G60U C72U C94U | -1.4 |
| U21A C97G | -4.44 |
| U21A A95G G117U | -1.3 |
| C20U G42U C56A A74U C115G | -4.76 |
| C20U G45U A100U | -3.67 |
| U21A A50C A68G | -6.32 |
| C20U C49U A90U G117U | -4.34 |
| C20U C89U A95U C115U | -3.32 |
| C20U G57C C104A | -2.45 |
| C20U C40U C70U G120C | -1.36 |
| C20U G45A C53G | -1.22 |
| C20U C53A A111G C114U | -7.62 |
| C20U G52A G60A U96A | -3.48 |
| U21A A29G A43U C56G A83C A91C G120U | -5.54 |
| C20U G47C A75U A91U | -4.77 |
| C20U C62A G93A U129A | -4.93 |
| U21A A90C | -1.58 |
| C20U C62G | -3.42 |
| C20U C62U | -1.15 |
| C20U A95G | -1.47 |
| U21A A50G A95G A105C | -3.34 |

| Variant | polymerase ribozyme fitness (log ratio) |
| --- | --- |
| C20U G47A C49G C123A U125G | -2.77 |
| C20U G61A | -1.13 |
| C20U G61C | -2.87 |
| C20U C76U G93C | -3.66 |
| C20U U92A | -4.08 |
| C20U G52A G120A | -1.57 |
| C20U G93A C101G G113C | -4.09 |
| C20U G117A | -2.72 |
| C20U G60U G110A | -3.8 |
| C20U C101U | -1.97 |
| C20U C85U | -2.85 |
| U21A A103U | -6.15 |
| C20U G52C U78A C102U C124U | -2.94 |
| C20U G52C C114A C123U | -4.27 |
| U21A A50G C72U A95G A105C | -2.73 |
| C20U C85U A100U | -3.48 |
| U21A A41U A90G | -0.995 |
| C20U C34A | -4.05 |
| C20U C34G | -6.47 |
| U21A A26U | -4.35 |
| C20U G52U C72U | -3.02 |
| C20U U32G C73G C97U C123U | -5.73 |
| U21A A74C C98A C114G U133G | -7.51 |
| C20U G44A C64U | -2.89 |

| Variant | polymerase ribozyme fitness (log ratio) |
| --- | --- |
| U21A C49U | -1.1 |
| C20U G113U G120U | -3.12 |
| C20U U54A | -0.906 |
| U21A C72G G77C C85A | -3.48 |
| U21A A27U U92A | -7.38 |
| C20U C64A C98A G117U | -6.4 |
| C20U U78C | -1.11 |
| U21A A91U | -2.43 |
| U21A C89U G110A U112C | -2.24 |
| C20U C70U G113U G120U | -3.51 |
| U21A C22A A27C C89U C114U A121U | -3.32 |
| U21A A43U | -1.83 |
| C20U G60C | -1.73 |
| C20U C53U G113C | -1.84 |
| U21A C34A A37G C98G | -2.68 |
| C20U C73A A95U U106A G122A | -4.57 |
| C20U G61A C98A | -5.48 |
| U21A C62G C73U | -2.55 |
| U21A C70A | -3.21 |
| C20U C40U A43U G93U | -4.35 |
| C20U G42U C56A C115G | -3.91 |
| U21A C53U A74C | -0.636 |
| C20U U33G C123U | -6.12 |
| C20U U116G | -4.59 |

| Variant | polymerase ribozyme fitness (log ratio) |
| --- | --- |
| U21A A41U G60A U96A | -4.01 |
| C20U U21G C49A C98U | -4.2 |
| C20U G60C C99U | -4.59 |
| C20U G48U A91C C94G | -4.07 |
| C20U G117U A119U | -4.12 |
| C20U G48U G57U G60A | -2.57 |
| C20U C22A A50C G69U | -2.32 |
| C20U C72A A83G G113U | -2.08 |
| C20U A90U G110U | -4.33 |
| C20U G48A C53U C99U | -5.43 |
| C20U G25C C64A C70U C98G A111U | -6.27 |
| C20U G120U | -1.57 |
| U21A C80U | -0.894 |
| C20U G45A G93U | -4.76 |
| C20U C49G G52C C72A G93U G117U A119G G128U | -4.52 |
| C20U C70G | -3.54 |
| C20U C70A | -3.13 |
| C20U C49U G71C A90U G117U | -6.09 |
| C20U C34G A43U C70U C82U C114A | -7.14 |
| C20U G61C G93C | -3.53 |
| C20U G45C | -3.07 |
| C20U U33G | -6.55 |
| U21A A43C G63C | -4.13 |
